According to article PMC2928751:
One block for each substance: values may come before it.

Legend:
[1] = target: Gli3 D-site peptide (human); experiment: peptide or protein array; 17-mer peptides linked by the C-terminus to a nitrocellulose membrane, in duplicate, probed with [35S]-methionine labelled JNK1; PhosphorImager signal normalised to MKK7-D2 = 100%
[2] = target: MLL4 D-site peptide (human); experiment: as above
[3] = target: Neil1 D-site peptide (human); experiment: as above
[4] = target: 35S-radiolabeled JNK1, P45983-2; experiment: peptide array probed with 35S-labeled JNK1, Phosphorimager quantification; conditions: read off a plot

binding normalised to the MKK7-D2 positive control [1]: 193 % of MKK7-D2
binding normalised to the MKK7-D2 positive control [2]: 161 % of MKK7-D2
binding normalised to the MKK7-D2 positive control [3]: 198 % of MKK7-D2
Substance: 35S-radiolabeled JNK1 (from UniProt P45983-2 1-384) (enzyme)

response (% of MKK7-D2 binding) ([4]; parent: est. 520): 28
Substance: MKK4 D-site peptide (positive control) MKK4 Mut (alanine substitutions at the critical basic and hydrophobic residues; not printed)

percent of parent (% of MKK7-D2 binding) ([4]; parent: est. 100): 12
Substance: MKK7-D2 peptide (positive control) MKK7 Mut (alanine substitutions at the critical basic and hydrophobic residues; not printed)
